We go through two substances from patent publication US20230310634A1, “ANTI-HUMAN VISTA ANTIBODIES AND USE THEREOF” (IMMUNEXT, INC., priority 2020, published 2023).

Experiment [1] addresses CD163 on human cells (human) (UniProt Q86VB7). Briefly: flow cytometry with quantification beads, CD14+ monocytes in human whole blood, n=3 donors. Background: A flow cytometer gives signals particle by particle.
Experiment [2] has the same target. In words: flow cytometry with quantification beads, CD14+ monocytes of human PBMC, n=5 donors (one outlier donor).
The target in experiment [3] is T1, human VISTA on cells (human) (UniProt Q9H7M9).
T1 sequence: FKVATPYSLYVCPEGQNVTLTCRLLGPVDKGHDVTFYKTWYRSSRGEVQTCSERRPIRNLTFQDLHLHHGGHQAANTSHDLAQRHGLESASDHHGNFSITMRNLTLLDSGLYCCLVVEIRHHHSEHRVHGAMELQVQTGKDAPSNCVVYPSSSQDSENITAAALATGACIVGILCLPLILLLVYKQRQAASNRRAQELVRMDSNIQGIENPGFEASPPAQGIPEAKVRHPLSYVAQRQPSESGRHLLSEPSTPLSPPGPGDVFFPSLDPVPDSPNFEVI
Briefly: flow cytometry, AF488-labelled control antibody on human monocytes, MFI normalised to INX200 at 0 min.

CD163 on human cells (human), sequence (Q86VB7 42-1156): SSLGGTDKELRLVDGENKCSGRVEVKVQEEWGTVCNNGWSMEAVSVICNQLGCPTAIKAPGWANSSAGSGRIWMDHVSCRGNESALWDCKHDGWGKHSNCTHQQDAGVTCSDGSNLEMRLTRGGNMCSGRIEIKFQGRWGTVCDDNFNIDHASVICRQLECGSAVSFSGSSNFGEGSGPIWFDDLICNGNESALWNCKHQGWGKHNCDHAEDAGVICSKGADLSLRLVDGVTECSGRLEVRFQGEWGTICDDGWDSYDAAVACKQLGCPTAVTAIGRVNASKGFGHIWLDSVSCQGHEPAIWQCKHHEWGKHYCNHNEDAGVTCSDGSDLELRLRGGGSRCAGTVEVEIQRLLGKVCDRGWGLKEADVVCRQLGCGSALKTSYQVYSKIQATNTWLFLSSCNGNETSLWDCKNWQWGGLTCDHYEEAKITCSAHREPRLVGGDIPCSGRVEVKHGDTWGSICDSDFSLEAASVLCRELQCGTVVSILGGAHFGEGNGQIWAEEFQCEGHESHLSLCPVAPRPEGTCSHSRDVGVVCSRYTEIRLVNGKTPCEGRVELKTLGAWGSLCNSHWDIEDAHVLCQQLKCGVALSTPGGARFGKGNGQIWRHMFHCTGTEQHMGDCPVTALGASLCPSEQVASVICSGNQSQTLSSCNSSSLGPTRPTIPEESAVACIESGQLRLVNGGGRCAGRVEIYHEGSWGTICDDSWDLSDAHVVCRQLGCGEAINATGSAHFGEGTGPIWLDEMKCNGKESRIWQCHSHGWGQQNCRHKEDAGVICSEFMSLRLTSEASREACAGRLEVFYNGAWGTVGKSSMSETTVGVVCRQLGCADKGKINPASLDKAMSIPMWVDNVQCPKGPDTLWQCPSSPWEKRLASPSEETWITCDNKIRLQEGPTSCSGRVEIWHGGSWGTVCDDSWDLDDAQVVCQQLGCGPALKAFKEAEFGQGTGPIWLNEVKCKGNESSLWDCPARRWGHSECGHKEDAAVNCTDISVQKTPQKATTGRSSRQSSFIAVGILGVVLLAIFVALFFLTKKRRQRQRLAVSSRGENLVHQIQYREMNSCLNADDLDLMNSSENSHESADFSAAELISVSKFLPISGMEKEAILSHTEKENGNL

“CD163 Alexa Fluor 647 clone GHI/61 (antibody)”: the antibody binding capacity (ABC) in experiment [1] is 13100 molecules. This substance gave an antibody binding capacity (ABC) (ABC (molecules per cell)) in experiment [2] of 36700. In experiment [3], Human IgG1si (antibody) yielded a nonspecific signal at 0 min relative to INX200 (% of MFI) of 5.9%.
